Measured values as given in the supplement of paper PMC9112550, “Optimization of the antimicrobial peptide Bac7 by deep mutational scanning” (BMC Biology, 2022).

System: Escherichia coli TOP10
Test: shrunken log2 fold change of peptide-encoding DNA abundance (4.5 h post-induction vs induction); higher = less antimicrobial activity (less host growth inhibition)
Conditions: time post-induction: 4.5 h; library: site-saturation at positions 5, 18, 19, 20
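Also: peptides expressed intracellularly from a pBAD plasmid library in pooled LB shake-flask culture, induced with 0.3% L-arabinose, DNA abundance read by NGS, three biological replicates, DESeq2 with apeglm shrinkage.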

Sequence | shrunken log2 fold change
RRIRHRPPRLPRPRPRPPCWPRP | 0.142
RRIRTRPPRLPRPRPRPRECPRP | 0.00425
RRIRTRPPRLPRPRPRPCMQPRP | 1.86
RRIRTRPPRLPRPRPRPGPMPRP | 0.101
RRIRFRPPRLPRPRPRPAYDPRP | -0.293
RRIRDRPPRLPRPRPRPKWAPRP | 0.0411
RRIRCRPPRLPRPRPRPLLNPRP | -0.39
RRIRSRPPRLPRPRPRPISTPRP | -0.102
RRIRVRPPRLPRPRPRPVFPPRP | 0.038
RRIRVRPPRLPRPRPRPSEMPRP | 0.0713
RRIRGRPPRLPRPRPRPKFRPRP | 0.112
RRIRMRPPRLPRPRPRPPECPRP | 0.369
RRIRMRPPRLPRPRPRPCIRPRP | -0.122
RRIRWRPPRLPRPRPRPQICPRP | -0.0447
RRIRFRPPRLPRPRPRPFMIPRP | -0.456
RRIRFRPPRLPRPRPRPIHHPRP | -0.0432
RRIRGRPPRLPRPRPRPHHKPRP | -0.122
RRIRNRPPRLPRPRPRPEAMPRP | 0.616
RRIRGRPPRLPRPRPRPIWFPRP | 0.31
RRIRERPPRLPRPRPRPLWIPRP | -0.558
RRIRERPPRLPRPRPRPHRIPRP | -0.229
RRIRKRPPRLPRPRPRPEGFPRP | 0.802
RRIRIRPPRLPRPRPRPYSVPRP | -0.07
RRIRIRPPRLPRPRPRPEAGPRP | -0.17
RRIRKRPPRLPRPRPRPIHHPRP | 0.0077

Sequence | shrunken log2 fold change
RRIRNRPPRLPRPRPRPYTIPRP | -0.138
RRIRMRPPRLPRPRPRPTHSPRP | 0.483
RRIRMRPPRLPRPRPRPGDPPRP | 1.09
RRIRDRPPRLPRPRPRPWVYPRP | -0.0138
RRIRKRPPRLPRPRPRPQLFPRP | 0.364
RRIRGRPPRLPRPRPRPSGQPRP | 0.538
RRIRCRPPRLPRPRPRPVRQPRP | 0.126
RRIRIRPPRLPRPRPRPYSQPRP | -0.269
RRIRTRPPRLPRPRPRPPKCPRP | -0.339
RRIRIRPPRLPRPRPRPYMNPRP | -0.712
RRIRLRPPRLPRPRPRPIMNPRP | -0.381
RRIRLRPPRLPRPRPRPQPCPRP | -0.215
RRIRYRPPRLPRPRPRPAYCPRP | -0.0229
RRIRSRPPRLPRPRPRPEQVPRP | 0.243
RRIRIRPPRLPRPRPRPYPEPRP | -0.0522
RRIRQRPPRLPRPRPRPFQLPRP | -0.00805
RRIRKRPPRLPRPRPRPERMPRP | 0.0818
RRIRNRPPRLPRPRPRPWHLPRP | -0.0913
RRIRWRPPRLPRPRPRPIKGPRP | -0.197
RRIRIRPPRLPRPRPRPCSFPRP | -0.45
RRIRARPPRLPRPRPRPDNHPRP | -0.0167
RRIRQRPPRLPRPRPRPHYQPRP | -0.0204
RRIRTRPPRLPRPRPRPVCEPRP | 0.243
RRIRHRPPRLPRPRPRPHRWPRP | 0.0507
RRIRVRPPRLPRPRPRPPTQPRP | 0.273

Sequence | shrunken log2 fold change
RRIRGRPPRLPRPRPRPDDNPRP | 0.484
RRIRHRPPRLPRPRPRPDFRPRP | -0.0827
RRIRMRPPRLPRPRPRPLHEPRP | 0.545
RRIRGRPPRLPRPRPRPFSEPRP | 0.144
RRIRTRPPRLPRPRPRPSVDPRP | -0.108
RRIRYRPPRLPRPRPRPCAEPRP | -0.835
RRIRSRPPRLPRPRPRPIWDPRP | 0.309
RRIRCRPPRLPRPRPRPSMAPRP | -0.224
RRIRTRPPRLPRPRPRPDNWPRP | -0.244
RRIRQRPPRLPRPRPRPKETPRP | 0.00762
RRIRLRPPRLPRPRPRPFCAPRP | 0.106
RRIRWRPPRLPRPRPRPYCRPRP | -0.295
RRIRDRPPRLPRPRPRPNFHPRP | -0.0585
RRIRHRPPRLPRPRPRPFVYPRP | -0.186
RRIRCRPPRLPRPRPRPNQGPRP | -0.203
RRIRWRPPRLPRPRPRPAYKPRP | -0.182
RRIRTRPPRLPRPRPRPVPSPRP | 0.0454
RRIRMRPPRLPRPRPRPDACPRP | 1.97
RRIRMRPPRLPRPRPRPMRGPRP | 1.53
RRIRWRPPRLPRPRPRPAGSPRP | -0.176
RRIRARPPRLPRPRPRPRCDPRP | 0.324
RRIRCRPPRLPRPRPRPDMGPRP | -0.406
RRIRRRPPRLPRPRPRPIMSPRP | -0.0839
RRIRFRPPRLPRPRPRPVDSPRP | 0.0218
RRIRHRPPRLPRPRPRPHNFPRP | -0.0184

Sequence | shrunken log2 fold change
RRIRLRPPRLPRPRPRPEKKPRP | -0.176
RRIRLRPPRLPRPRPRPHCYPRP | 0.011
RRIRRRPPRLPRPRPRPVSPPRP | 0.0657
RRIRMRPPRLPRPRPRPIPSPRP | 0.0101
RRIRERPPRLPRPRPRPAIGPRP | 0.0473
RRIRERPPRLPRPRPRPMMAPRP | -0.128
RRIRRRPPRLPRPRPRPGKNPRP | 0.16
RRIRHRPPRLPRPRPRPSWKPRP | -0.0518
RRIRYRPPRLPRPRPRPGADPRP | -0.177
RRIRWRPPRLPRPRPRPSRVPRP | 0.253
RRIRHRPPRLPRPRPRPTWTPRP | 2.15e-05
RRIRNRPPRLPRPRPRPCKLPRP | -0.362
RRIRNRPPRLPRPRPRPTWMPRP | -0.155
RRIRVRPPRLPRPRPRPRCPPRP | -0.00901
RRIRMRPPRLPRPRPRPEMWPRP | 2.4
RRIRIRPPRLPRPRPRPITLPRP | -0.237
RRIRTRPPRLPRPRPRPNLIPRP | -0.408
RRIRNRPPRLPRPRPRPIKGPRP | -0.104
RRIRPRPPRLPRPRPRPHQAPRP | 0.0618
RRIRCRPPRLPRPRPRPDDWPRP | 0.104
RRIRDRPPRLPRPRPRPQSYPRP | -0.495
RRIRLRPPRLPRPRPRPEEIPRP | -0.012
RRIRLRPPRLPRPRPRPFDSPRP | -0.174
RRIRDRPPRLPRPRPRPTRSPRP | 0.877
RRIRMRPPRLPRPRPRPKRNPRP | 1.66

Sequence | shrunken log2 fold change
RRIRIRPPRLPRPRPRPPYNPRP | -0.854
RRIRRRPPRLPRPRPRPDMWPRP | 0.103
RRIRCRPPRLPRPRPRPPAVPRP | 0.645
RRIRTRPPRLPRPRPRPMVQPRP | 0.0197
RRIRNRPPRLPRPRPRPNSQPRP | -0.265
RRIRARPPRLPRPRPRPHTGPRP | -0.365
RRIRRRPPRLPRPRPRPDMCPRP | 0.019
RRIRMRPPRLPRPRPRPQDNPRP | 0.013
RRIRERPPRLPRPRPRPFELPRP | -0.0731
RRIRERPPRLPRPRPRPKSAPRP | 0.116
RRIRARPPRLPRPRPRPEPYPRP | 0.34
RRIRIRPPRLPRPRPRPVEFPRP | -0.0453
RRIRQRPPRLPRPRPRPYNAPRP | -0.0247
RRIRKRPPRLPRPRPRPQSRPRP | 0.0866
RRIRTRPPRLPRPRPRPYRVPRP | 0.0325
RRIRMRPPRLPRPRPRPGFSPRP | 0.331
RRIRLRPPRLPRPRPRPAKEPRP | -0.049
RRIRVRPPRLPRPRPRPAKMPRP | 0.0161
RRIRHRPPRLPRPRPRPVPMPRP | 0.0504
RRIRIRPPRLPRPRPRPDEFPRP | 0.0764
RRIRNRPPRLPRPRPRPKRYPRP | 0.0391
RRIRKRPPRLPRPRPRPNCLPRP | -0.0339
RRIRSRPPRLPRPRPRPDIYPRP | -0.194
RRIRERPPRLPRPRPRPAGNPRP | -0.0376
RRIRFRPPRLPRPRPRPLFYPRP | -0.0429
